Where two headings read alike, the source gives them in different places.
B1: GMA-2105 murine monoclonal antibody (antibody, V domains shown)
VH: EVKLEESGGGLVQPGGSMKLSCAASGFTFSDAWMDWVRQSPEKGLEWVAEIRTKANNHATYYAESVKGRFTISRDDSKSSVYLQMNSLRAEDTGIYYCTNVYYGNNDVKDYWGQGTSVTVSP
VL: DIVMTQSQKFMSTSVGDRVSVTCKASQNVDIYVAWYQQKPGQSPKALIYSASYRFSGVPDRFTGSGSGTDFTLSISNVQSEDLAEYFCQQYNNYPYTFGGGTKLEIKR
notes: also called anti-SC(1-10) mAb; clone 2A1.5H4.B7
B2: Chimeric GMA-2105 (antibody, V domains shown)
VH: B1 VH
VL: B1 VL

How the values were obtained:
[1] = target: T1, BODIPY-labeled staphylocoagulase SC (S7C)(1-325) (Staphylococcus aureus, UniProt P17855 27-351); test: BODIPY fluorescence increase on titration, quadratic binding equation
T1 sequence: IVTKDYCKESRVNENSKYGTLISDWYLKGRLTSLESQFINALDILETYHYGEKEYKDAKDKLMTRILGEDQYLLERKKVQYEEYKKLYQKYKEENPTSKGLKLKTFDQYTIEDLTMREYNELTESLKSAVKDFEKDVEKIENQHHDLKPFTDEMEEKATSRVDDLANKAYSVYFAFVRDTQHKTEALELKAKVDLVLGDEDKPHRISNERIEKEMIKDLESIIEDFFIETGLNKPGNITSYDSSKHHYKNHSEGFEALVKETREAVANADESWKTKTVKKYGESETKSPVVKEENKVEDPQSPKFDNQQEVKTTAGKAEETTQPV

[2] = target: T1, BODIPY-labeled staphylocoagulase SC …
[3] = target: T2, staphylocoagulase SC(1-246), unlabeled (Staphylococcus aureus, UniProt P17855 27-272)
T2 sequence: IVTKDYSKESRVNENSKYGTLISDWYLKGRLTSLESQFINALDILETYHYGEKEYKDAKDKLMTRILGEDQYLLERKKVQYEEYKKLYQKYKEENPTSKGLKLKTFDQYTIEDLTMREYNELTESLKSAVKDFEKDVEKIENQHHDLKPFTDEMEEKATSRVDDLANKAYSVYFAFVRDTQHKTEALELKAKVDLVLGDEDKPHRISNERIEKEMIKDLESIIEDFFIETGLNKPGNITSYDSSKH

Mutated Peptide Ala 8 = Mutated Peptide Ala 8 (Staphylococcus aureus); test: solid phase competitive inhibition ELISA; peptide in solution against coated …
[4] = target: Mutated Peptide Ala 8 & 9 (Staphylococcus aureus); test: as above
Mutated Peptide Ala 9 = Mutated Peptide Ala 9 (Staphylococcus aureus); test: as above

Row | Binder | Kd [1] [nM] | stoichiometry (n) [1] | Kd [2] [nM] | stoichiometry [2] | Kd [3] [nM] | binding result (Mutated Peptide Ala 8) | binding result [4] | binding result (Mutated Peptide Ala 9)
1 | B1 | 2 | 1.6 mol BODIPY-SC/mol GMA-2105 | 0.99 | 2 mol staphylocoagulase/mol GMA-2105 | 4 | binds | binds | binds
2 | B2 | – | – | 0.79 | 2 mol staphylocoagulase/mol chimeric antibody | – | – | – | –
